Measured values: article PMC11978755

Tests used:
[1] = biological target: Recombinant hemagglutinin-esterase-fusion (HEF) ectodomain of influenza D virus D/swine/Oklahoma/1334/2011 (influenza D virus (D/swine/Oklahoma/1334/2011)); test: BLI
[2] = biological target: Recombinant hemagglutinin-esterase-fusion (HEF) ectodomain of influenza C virus C/Johannesburg/1/1966 (influenza C virus (C/Johannesburg/1/1966)) (UniProt P07975); test: BLI
UniProt P07975, sequence (P07975 15-630): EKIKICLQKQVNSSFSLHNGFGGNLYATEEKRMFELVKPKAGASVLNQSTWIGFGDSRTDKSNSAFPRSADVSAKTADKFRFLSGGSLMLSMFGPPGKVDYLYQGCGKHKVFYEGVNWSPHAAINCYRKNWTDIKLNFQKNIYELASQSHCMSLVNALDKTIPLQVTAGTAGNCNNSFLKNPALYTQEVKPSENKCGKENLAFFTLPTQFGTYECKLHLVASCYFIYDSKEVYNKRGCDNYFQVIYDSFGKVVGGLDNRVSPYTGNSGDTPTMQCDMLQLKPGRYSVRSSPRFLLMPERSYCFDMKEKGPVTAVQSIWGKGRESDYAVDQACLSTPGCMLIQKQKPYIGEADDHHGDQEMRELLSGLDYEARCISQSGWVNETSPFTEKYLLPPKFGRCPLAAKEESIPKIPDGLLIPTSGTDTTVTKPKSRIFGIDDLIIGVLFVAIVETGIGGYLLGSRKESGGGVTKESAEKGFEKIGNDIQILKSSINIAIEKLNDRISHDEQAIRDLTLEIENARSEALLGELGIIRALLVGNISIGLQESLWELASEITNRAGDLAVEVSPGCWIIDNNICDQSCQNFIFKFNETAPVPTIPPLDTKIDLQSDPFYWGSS

## CR9114 IgM (pentameric, ten antigen binding sites) (antibody)
[1]
  Kd: > 100 µM
[2]
  Kd: > 100 µM

## CR9114 IgG (human IgG1, wild type) (antibody)
[1]
  Kd: > 100 µM
[2]
  Kd: > 100 µM
